Measured values published in patent US20200384109A1 (Novartis, published 2020).

T1: BKV serotype I (ST1) virus-like particles (VLPs) (BK virus serotype I, UniProt P03088 1-362)
T1 construct: VLP made by expressing VP1 in Sf9 insect cells and composed of 72 VP1 pentamers; also called BKV ST1 VLP; BKV ST1
T1 chain: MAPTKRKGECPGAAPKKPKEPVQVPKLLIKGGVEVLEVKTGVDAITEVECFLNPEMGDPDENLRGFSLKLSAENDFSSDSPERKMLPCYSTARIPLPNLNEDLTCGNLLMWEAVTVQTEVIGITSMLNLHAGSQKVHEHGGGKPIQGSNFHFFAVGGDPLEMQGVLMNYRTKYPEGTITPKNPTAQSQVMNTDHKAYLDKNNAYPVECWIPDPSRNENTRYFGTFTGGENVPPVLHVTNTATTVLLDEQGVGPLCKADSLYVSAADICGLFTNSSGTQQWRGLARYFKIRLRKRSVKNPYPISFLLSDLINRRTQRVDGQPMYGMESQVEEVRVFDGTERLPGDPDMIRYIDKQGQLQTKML

B1: NOV581 (antibody, V domains shown)
VH: QVQLVESGGGLVQPGGSLRLSCVASGFTFSGYNMHWVRQAPGKGLEWVSYISNSGRTIYYADSVKGRFTLSRDNAKNSLYLQMNSLRAEDTAVYFCARDRDPQWLGNDALQIWGQGTMVTVSS
VL: EIVLTQSPGTLSLSPGERATLSCRASQSVSSGYLAWYQQKPGQAPRLLIYGASSRATGIPDRFSGSGSGTDFTLTISRLEPEDFAVYYCQQYGTSRKTFGQGTKVEIKR
notes: also called antibody NOV581; clone NOV581
B2: NOV530 (antibody, V domains shown)
VH: QVQLQESGPGLVKPSQTLSLTCTVSGGSISGGGYYWSWIRQHPGKGLEFIGYIYYNRGTYYNPALKSRLTISVDTSKNDFSLKLSSVSAADTAVYYCARCVLGGYGSDAFDRWGQGTTVTVAS
VL: EIVLTQSPVTLSLSPGERAILSCRASQSVSSHLAWYQQKPGQAPRLLIYDASSRANGIPARFSGSGSGTDFTLTISSLAPEDFAVYYCQQRSSWPPSLTFGGGTKVEIRR
notes: also called antibody NOV530; cross-neutralizing IgG NOV530
B3: NOV638 (antibody, V domains shown)
VH: QVQLVQSGAEVKKPGASVKVSCKASGYTFTSYDIIWVRQATGQGLEWMGRMNPTGGNTDYVPKFQGRVTMTRDISLSTAYMELRSLTSEDTAVFYCARGVKSLGVSEIDYWGQGTLVTVSS
VL: QSALTQPPSVSAAPGQKVTISCSGSTSNIANNYVLWYQQLPGTAPKLLIYDNNKRPSGIPDRFSGSKSGTSATLGITGLQTADEADYYCGTWDNSLSVGVFGGGTKLTVLG
notes: also called antibody NOV638

How the values were obtained:
[1] = target: T2, BKV serotype IV (ST4) virus-like particles (VLPs) (BK virus serotype IV, UniProt P14996 1-362); assay: solution equilibration titration (SET) with BKV VLPs
T2 construct: VLP made by expressing VP1 in Sf9 insect cells and composed of 72 VP1 pentamers; also called BKV ST4 VLP; BKV ST4

[2] = target: T1, BKV serotype I (ST1) virus-like …; assay: solution equilibration titration (SET), antibody 1 pM, BKV VLPs in solution, MSD read-out
[3] = target: JC virus (JCV) (JC virus, UniProt P03089 1-354); assay: cell-based or functional assay
[4] = target: T2, BKV serotype IV (ST4) virus-like …; assay: ELISA on plates coated with BKV ST1 or ST4 VLPs (100 ng/well)
Description: The binding of antibodies to VLPs were analyzed by ELISA. Briefly, Nunc MaxiSorp 384-well plates (Thermo Scientific) were coated with 100 ng/well BKV VLPs to BK serotype I (ST1) or serotype IV (ST4) overnight. Antibodies were serially diluted in PBS with 0.5% BSA and allowed to bind antigen-coated plates for 2 hours. […] Plates were washed with PBS and tetramethylbenzidine (TMB) microwell peroxidase substrate (SeramunBlau Fast, Seramun, Germany) was used to develop the reactions.

Binder	binding result [1]	Kd [2]	EC50 of virus neutralization [3]	binding result [4]
B1	no binding	< 0.05 nM	–	–
B2	–	< 0.05 nM	< 1 nM	–
B3	–	–	–	no binding
